T1: HA-tagged Cdc23p (pRep41-HA3cdc23) (fission yeast, UniProt O42709 1-593)
T1 construct: also called HA-Cdc23p; HA-Cdc23
T1 sequence (looked up): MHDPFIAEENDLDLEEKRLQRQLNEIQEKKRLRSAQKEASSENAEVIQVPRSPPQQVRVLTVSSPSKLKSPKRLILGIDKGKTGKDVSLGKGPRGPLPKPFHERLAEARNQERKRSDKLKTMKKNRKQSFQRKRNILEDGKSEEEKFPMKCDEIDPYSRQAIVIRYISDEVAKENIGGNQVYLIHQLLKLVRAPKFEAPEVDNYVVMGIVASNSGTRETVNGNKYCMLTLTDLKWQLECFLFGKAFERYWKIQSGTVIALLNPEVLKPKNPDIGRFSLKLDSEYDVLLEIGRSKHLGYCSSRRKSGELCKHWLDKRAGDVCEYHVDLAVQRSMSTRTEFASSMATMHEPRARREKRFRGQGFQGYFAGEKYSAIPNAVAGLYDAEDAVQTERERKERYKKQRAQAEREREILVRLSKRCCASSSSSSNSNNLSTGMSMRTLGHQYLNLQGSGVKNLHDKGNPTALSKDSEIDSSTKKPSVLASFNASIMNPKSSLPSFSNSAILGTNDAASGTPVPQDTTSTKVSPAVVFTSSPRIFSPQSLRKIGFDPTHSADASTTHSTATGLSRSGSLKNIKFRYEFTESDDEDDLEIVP

T2: HA-tagged Bot1p (HA3-bot1, pRep41-HA3bot1)
T2 chain: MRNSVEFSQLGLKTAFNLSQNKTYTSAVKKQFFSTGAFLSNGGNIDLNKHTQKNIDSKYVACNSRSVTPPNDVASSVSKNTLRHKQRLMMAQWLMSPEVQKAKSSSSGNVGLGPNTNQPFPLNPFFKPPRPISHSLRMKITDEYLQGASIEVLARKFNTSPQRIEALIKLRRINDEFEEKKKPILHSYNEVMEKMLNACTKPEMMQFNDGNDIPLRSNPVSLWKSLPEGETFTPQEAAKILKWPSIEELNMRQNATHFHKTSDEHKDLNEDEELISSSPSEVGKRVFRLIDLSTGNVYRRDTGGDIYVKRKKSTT

T3: HA-tagged Tea1p (nmt1-HA3tea1) (Schizosaccharomyces pombe, UniProt P87061 1-1147)
T3 construct: also called HA-Tea1p
T3 sequence (looked up): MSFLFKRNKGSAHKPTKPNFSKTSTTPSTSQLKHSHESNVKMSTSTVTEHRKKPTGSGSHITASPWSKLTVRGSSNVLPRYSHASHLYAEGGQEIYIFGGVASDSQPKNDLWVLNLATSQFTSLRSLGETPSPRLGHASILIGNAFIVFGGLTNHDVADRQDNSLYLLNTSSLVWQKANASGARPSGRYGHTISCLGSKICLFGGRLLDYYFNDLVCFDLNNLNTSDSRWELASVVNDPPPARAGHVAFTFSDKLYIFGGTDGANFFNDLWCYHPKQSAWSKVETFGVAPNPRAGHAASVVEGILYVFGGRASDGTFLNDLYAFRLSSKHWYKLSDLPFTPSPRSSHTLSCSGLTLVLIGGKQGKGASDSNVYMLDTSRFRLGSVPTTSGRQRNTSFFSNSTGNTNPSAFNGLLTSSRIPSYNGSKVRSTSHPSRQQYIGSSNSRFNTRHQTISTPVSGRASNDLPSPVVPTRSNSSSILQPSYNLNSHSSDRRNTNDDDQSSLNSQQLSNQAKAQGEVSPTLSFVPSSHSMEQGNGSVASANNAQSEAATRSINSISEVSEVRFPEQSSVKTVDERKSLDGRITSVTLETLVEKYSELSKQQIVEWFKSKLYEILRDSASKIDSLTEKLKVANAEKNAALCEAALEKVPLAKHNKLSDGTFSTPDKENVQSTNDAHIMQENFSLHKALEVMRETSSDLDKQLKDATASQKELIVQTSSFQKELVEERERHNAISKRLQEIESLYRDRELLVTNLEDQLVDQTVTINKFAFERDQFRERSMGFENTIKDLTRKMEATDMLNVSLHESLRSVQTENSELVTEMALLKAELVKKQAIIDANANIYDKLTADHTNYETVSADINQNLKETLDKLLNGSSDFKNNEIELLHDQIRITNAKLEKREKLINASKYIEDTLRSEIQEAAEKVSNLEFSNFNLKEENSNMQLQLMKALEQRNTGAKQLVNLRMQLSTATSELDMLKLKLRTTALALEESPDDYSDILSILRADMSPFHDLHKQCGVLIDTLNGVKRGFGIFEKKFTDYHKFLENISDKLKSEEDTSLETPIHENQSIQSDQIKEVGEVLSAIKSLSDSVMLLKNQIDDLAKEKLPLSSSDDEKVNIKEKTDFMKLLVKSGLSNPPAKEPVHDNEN

B1: GST-tagged Orb6p expressed in fission yeast (pESP-GSTOrb6+) (enzyme, Schizosaccharomyces pombe, UniProt O13310 1-469, looked up, not shown: a dimerising Fc or GST)
chain: MDKNDYLHFERNPSLFPKSTLDKVQKTKKYIEHYYKVAVDHAVERNQRRINLEQRLATERGSEERKNRQLRASGEKESQFLRFRRTRLSLEDFSTIKVIGKGAFGEVRLVQKLDTGKIYAMKSLLKTEMFKRDQLAHVKAERDLLVESDSPWVVSLYYAFQDSLYLYLIMEFLPGGDLMTMLINYDTFSEDVTRFYMAECVLAIADVHRMGYIHRDIKPDNILIDRDGHIKLSDFGLSTGFYKQDQSASYMKPRTGNTVKRGQMVDAIWLTMSSKDKMATWKKNRRVMAYSTVGTPDYIAPEIFLQQGYGQDCDWWSLGAIMFECLIGWPPFCSENSHETYRKIINWRETLTFPNDIHLSIEARDLMDRLMTDSEHRLGRGGAIEIMQHPFFTGIDWDHIRETAAPFIPNLKSITDTHYFPVDELEQVPEQPVTQQPASVDPQTLEQTNLAFLGYTYKKFNYLTMKGAL
notes: also called GST-Orb6p
B2: GAL4 activation domain fused to SNF4p (pSE1111, pACT-SNF4) (other, UniProt P12904 1-322, looked up, not shown: large carriers)
chain: MKPTQDSQEKVSIEQQLAVESIRKFLNSKTSYDVLPVSYRLIVLDTSLLVKKSLNVLLQNSIVSAPLWDSKTSRFAGLLTTTDFINVIQYYFSNPDKFELVDKLQLDGLKDIERALGVDQLDTASIHPSRPLFEACLKMLESRSGRIPLIDQDEETHREIVVSVLTQYRILKFVALNCRETHFLKIPIGDLNIITQDNMKSCQMTTPVIDVIQMLTQGRVSSVPIIDENGYLINVYEAYDVLGLIKGGIYNDLSLSVGEALMRRSDDFEGVYTCTKNDKLSTIMDNIRKARVHRFFVVDDVGRLVGVLTLSDILKYILLGSN
B3: GAL4 activation domain (GAD) alone (other, UniProt P04386 768-881, looked up)
chain: ANFNQSGNIADSSLSFTFTNSSNGPNLITTQTNSQALSQPIASSNVHDNFMNNEITASKIDDGNNSKPLSPGWTDQTAYNAFGITTGMFNTTTMDDVYNYLFDDEDTPPNPKKE
notes: Two-hybrid negative control

How the values were obtained:
[1] = target: T1, HA-tagged Cdc23p (pRep41-HA3cdc23); assay: co-purification on glutathione resin from fission yeast extracts, co-expressed
Procedure: (§1) Immunoblot analysis was performed using standard methodology. For co-purification experiments, ade6-704 ura4-D18 leu1-32 h-cells co-expressing HA-tagged Bot1p and GST-tagged Orb6p (FV17p), or cells co-expressing HA-tagged Bot1p and GST alone (FV16p) as a control were cultured, for 15 hr at 32° C. in the absence of thiamine. HA₃-bot1 was moderately expressed from an attenuated nmt1 promoter (10). GST-tagged fusions were constructed using the pESP plasmid (Qiagen), which also contains a nmt1 promoter. Cells were then re-suspended in HB buffer and broken using a FastPrep FP120 bead beater (Savant). Extracts were spun at 15K rpm for 15 min. GST-tagged Orb6 or GST alone was purified using glutathione beads (Molecular Probes).
Glutathione beads were washed three times in HB buffer and then eluted. […]
To confirm this interaction between Bot1p and Orb6p in fission yeast extracts, HA-Bot1p and GST-Orb6p were co-expressed in fission yeast cells, and GST-Orb6p was purified using glutathione-coupled resin. […] Furthermore, neither GST nor GST-Orb6p co-purified with HA-tagged Cdc23p, when co-expressed as an additional control for specificity.

[2] = target: T2, HA-tagged Bot1p (HA3-bot1, …)
[3] = target: T3, HA-tagged Tea1p (nmt1-HA3tea1); assay: glutathione beads carrying GST-Orb6p with co-purified HA-Bot1p, incubated with an extract containing HA-Tea1p
Procedure: as §1
Glutathione beads were washed three times in HB buffer and then eluted. The eluate was run on a 10% polyacrylamide gel, blotted on nitrocellulose, and probed with a primary anti-HA antibody (Covance) or, separately, with a primary anti-GST antibody (Molecular Probes) and with a horseradish peroxidase-conjugated secondary antibody (ECL, Amersham).
To investigate whether Bot1p is able to form a complex with Tea1p and Orb6p, we determined if these proteins co-immunoprecipitate in cell extracts, if they interact in the yeast two-hybrid system, and if they are able to associate in vitro. […]

[4] = target: Tea1p fused to the DNA binding domain of GAL4 (pAS1) (Schizosaccharomyces pombe, UniProt P04386 1-147; P87061 1-1147); assay: yeast two-hybrid (HIS3 and LACZ reporters)
From the text: (§2) The tea1 gene was fused to the DNA binding domain of GAL4 in a plasmid (pAS1) carrying the trp1 marker. The orb6 gene was fused to the DNA binding domain of GAL4 (pAS1-orb6) and to the GAL4 activator domain (pACT2-orb6). The cDNA library was cloned to the transcription activator domain of GAL4 in a plasmid (pACT) carrying the leu2 marker. Plasmids pAS1, pACT2, pSE1111 (pACT-SNF4), pSE1112 (pAS1-SNF1), pAS1-p53, pAS1-lamin and the S. pombe library prepared in phage λ vectors and plasmids pAS1-SNF1 and pAS1-lamin, both harbored in Y187 strain, were kindly provided by Dr. S. Elledge. The test for cell growth on medium lacking histidine, the beta-galactosidase activation assay and the mating test to detect interaction specificity were performed as described (14). After screening 2×10⁶ transformants, we found five proteins that interact with Orb6p and four that interact with Tea1p in this system, and that were identified multiple times in the screen. Clones containing bot1+ were isolated 22 times in the Orb6p screen and eight times in the Tea1p screen. All clones contained the full-length bot1 sequence, although they usually lacked the initial ATG codon. For beta-galactosidase activation, three independent transformants were assayed for each condition.
(§3) To identify novel components of the Orb6p pathway, a two-hybrid screen was performed to identify cDNAs encoding proteins that interact with Orb6p. One of these, isolated 22 times in this screen, was a novel protein that we named Bot1p. […] The specificity of the positive interaction between Orb6p and Bot1p in the two-hybrid system was controlled by cotransformation of pAS1-orb6 and pACT-bot1 independently with a number of control plasmids. Co-expression of SNF1p or SNF4p was used as positive controls. Orb6p was unable to support the activation of the LACZ-GAL4 and HIS3-GAL4 promoters when co-expressed with GAL4 activation domain fused to SNF4p, or with the GAL4 activation domain (GAD) alone. Bot1p was unable to support the activation of the LACZ-GAL4 and HIS3-GAL4 promoters when co-expressed with the GAL4 binding domain fused to p53, Cdc23p, GAL4 DNA binding domain (GBD) alone, or fused to SNF1p or Cdt1p.

[5] = target: T4, Orb6p fused to the DNA binding domain of GAL4 (pAS1-orb6) (Schizosaccharomyces pombe, UniProt P04386 1-147; O13310 1-469, limits assumed); assay: LACZ-GAL4 reporter in strain BY3161, control of the three-hybrid test
[6] = target: T4, Orb6p fused to the DNA binding domain …; assay: yeast two-hybrid (HIS3 and LACZ reporters)
From the text: as §2, §3

Row | Binder | binding result [1] | GST-Orb6p autophosphorylation (in vitro protein kinase activity) [2] | in vitro phosphorylation of Bot1p by Orb6p [2] | binding result [3] | binding result [4] | binding result [5] | binding result [6]
1 | B1 | no binding | The level of GST-Orb6p autophosphorylation was the same for proteins isolated from control and Bot1p-overexpressing cells | Orb6p-associated Bot1p was not phosphorylated in vitro by Orb6p | no binding | – | – | –
2 | B2 | – | – | – | – | no binding | no binding | –
3 | B3 | – | – | – | – | no binding | – | no binding
